This assay has as its target T1, γ-secretase (Homo sapiens, UniProt P49768).
T1 construct: made in house; host or cells: suspension HEK cells (Freestyle 293), transiently transfected
As to the kind of experiment: In vitro γ-secretase assay (purified γ-secretase in proteoliposomes cleaving recombinant C100-FLAG substrate). The format is biochemical. Conditions: C100-FLAG 500 nM, Figure 1B, 1F. On the procedure:
Purified γ-secretase was incorporated into vesicles by first dissolving total brain lipid extract (1.25 mM final) in 50 mM HEPES pH 7.0, 150 mM NaCl, 0.25% CHAPSO. γ-Secretase (5–30 nM final concentration) was then added to the solution and detergent removed by mixing SM-2 biobeads (62 mg/mL) (Bio-Rad) with the lipid/detergent/enzyme solution for two hrs at 4°C. Biobeads were removed from the newly formed proteoliposomes and reactions were initiated with the addition of purified recombinant substrate C100-FLAG substrate. Reactions were quenched with SDS loading dye for western blot or centrifuged for ELISA or mass spectrometry on Aβ or AICD fragments, respectively.
For inhibition studies, tripeptide fragments or inhibitors were dissolved in DMSO prior to being diluted into the reaction buffer. The concentration of C100-FLAG used in all in vitro assays was 500 nM unless otherwise stated.
Tripeptide IC50 inhibition was fit to: vi/vo=1/(1+[I]/IC50)
Tripeptide inhibition was globally fit to the following noncompetitive equation: v= Vmax[S]/[S](1+[I]/Kii)+Km(1+[I]/Ki)
Inhibitor cross-competition was globally fit to: 1/vij=1/v0(1+[I]/Ki+[J]/Kj+[I][J]/αKiKj)

On to “AFA: synthetic tripeptide predicted to clash with the S' pocket binding site”, for which the “inhibition of γ-secretase activity (relative potency in words)” value is “very weak inhibitor”.
Take “FAF: synthetic tripeptide of the predicted optimal binding sequence for the large-small-large S1'-S2'-S3' pockets”: the “inhibition of γ-secretase activity (relative potency in words)” value is listed as “more potent inhibitor of γ-secretase activity than any of the naturally occurring APP-derived tripeptides”.

The values are drawn from paper PMC5134833, “The amyloid-beta forming tripeptide cleavage mechanism of γ-secretase” (eLife, 2016).
